# Laboratory results from patent publication US20220016254A1 (BEIJING QL BIOPHARMACEUTICAL, published 2022).
# T1: human beta-Klotho (human, UniProt Q86Z14 1-1044)
# T1 sequence (looked up): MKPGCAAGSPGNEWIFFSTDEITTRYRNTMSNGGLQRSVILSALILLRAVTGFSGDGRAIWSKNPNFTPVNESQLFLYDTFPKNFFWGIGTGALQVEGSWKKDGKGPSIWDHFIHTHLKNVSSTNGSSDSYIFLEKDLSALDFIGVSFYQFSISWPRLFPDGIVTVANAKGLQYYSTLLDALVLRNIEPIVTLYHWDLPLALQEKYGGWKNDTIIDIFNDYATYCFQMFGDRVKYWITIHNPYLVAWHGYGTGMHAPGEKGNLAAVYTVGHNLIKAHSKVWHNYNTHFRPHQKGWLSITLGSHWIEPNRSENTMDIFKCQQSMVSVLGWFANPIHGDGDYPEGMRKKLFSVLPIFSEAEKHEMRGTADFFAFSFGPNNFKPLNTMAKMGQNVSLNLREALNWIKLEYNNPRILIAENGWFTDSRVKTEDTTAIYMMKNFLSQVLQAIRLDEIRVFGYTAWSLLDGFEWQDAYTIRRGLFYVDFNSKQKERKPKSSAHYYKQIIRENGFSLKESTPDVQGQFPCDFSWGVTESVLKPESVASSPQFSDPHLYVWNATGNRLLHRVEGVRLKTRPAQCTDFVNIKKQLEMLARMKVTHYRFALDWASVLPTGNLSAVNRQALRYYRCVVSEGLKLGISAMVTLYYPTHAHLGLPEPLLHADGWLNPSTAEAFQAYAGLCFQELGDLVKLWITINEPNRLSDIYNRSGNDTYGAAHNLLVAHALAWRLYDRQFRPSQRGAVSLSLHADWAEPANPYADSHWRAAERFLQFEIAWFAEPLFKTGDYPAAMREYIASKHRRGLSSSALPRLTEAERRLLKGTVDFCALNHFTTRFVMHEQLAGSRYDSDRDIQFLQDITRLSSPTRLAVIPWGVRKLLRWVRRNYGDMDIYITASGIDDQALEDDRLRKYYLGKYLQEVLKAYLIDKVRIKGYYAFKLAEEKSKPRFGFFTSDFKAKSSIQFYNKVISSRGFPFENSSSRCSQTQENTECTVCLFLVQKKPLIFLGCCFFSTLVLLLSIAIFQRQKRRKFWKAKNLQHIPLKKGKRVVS
# Tests used:
# human beta-Klotho = molecular target: T1, human beta-Klotho; test: cell-based or functional assay
# human GLP-1 receptor = human GLP-1 receptor (human, UniProt P43220 24-463); test: cell-based or functional assay
"FGF21 activity (EC50, nM); p-ERK levels (human beta-Klotho) [nM]","GLP-1 activity (EC50, pM); CRE luciferase reporter (human GLP-1 receptor) [pM]",Binder
8,–,"Compound 40 (ligand, Moiety A (HOOC-(CH2)16-CO-gGlu-2XADO) on 111K and 282K of fusion polypeptide) HGEGTFTSDVSSYLEEQAAREFIAWLVRGGGGAQPGAQPGAQPGAQPGAQPGAQPGAQPGAQPGAQPGAQPGAQPGAQPGAQPGAQPGAQPGAQPGAQPGAQPGAQPGAQKHPIPDSSPLLQFGGQVRQRYLYTDDAQQTEAHLEIREDGTVGGAADQSPESLLQLRALRPGVIQILGVRTSRFLCQRPDGALYGSLHFDPEACSFRELLLEDGYNVYQSEAHGLPLHLPGQRSPHRDPAPRGPARFLPLPGLPPALPEPPGILAPQPPDVGSSDPLSLVGKSQGRSPSYES"
10.6,–,Native FGF21 (ligand) HPIPDSSPLLQFGGQVRQRYLYTDDAQQTEAHLEIREDGTVGGAADQSPESLLQLKALKPGVIQILGVKTSRFLCQRPDGALYGSLHFDPEACSFRELLLEDGYNVYQSEAHGLPLHLPGNKSPHRDPAPRGPARFLPLPGLPPALPEPPGILAPQPPDVGSSDPLSMVGPSQGRSPSYAS
4.9,19.9,"Compound 9 (ligand, Moiety A (HOOC-(CH2)16-CO-gGlu-2XADO) on 231K of fusion polypeptide) HGEGTFTSDVSSYLEEQAAREFIAWLVRGGGGGGGSGGGGSGGGGSGGGGSHPIPDSSPLLQFGGQVRQRYLYTDDAQQTEAHLEIREDGTVGGAADQSPESLLQLRALRPGVIQILGVRTSRFLCQRPDGALYGSLHFDPEACSFRELLLEDGYNVYQSEAHGLPLHLPGQRSPHRDPAPRGPARFLPLPGLPPALPEPPGILAPQPPDVGSSDPLSLVGGSQGRSPSYKS"
7.3,16.8,"Compound 15 (ligand, Moiety A (HOOC-(CH2)16-CO-gGlu-2XADO) on 231K of fusion polypeptide) HGEGTFTSDVSSYLEEQAAREFIAWLVRGGGGGGGSGGGGSGGGGSGGGGSHPIPDSSPLLQFGGQVRQRYLYTDDAQQTEAHLEIREDGTVGGAADQSPESLLQLRALRPGVIQILGVRTSRFLCQRPDGALYGSLHFDPEACSFRELLLEDGYNVYQSEAHGLPLHLPGQRSPHRDPAPRGPARFLPLPGLPPALPEPPGILAPQPPDVGSSDPLSLVGPSQGRSPSYKS"
5.5,46.6,"Compound 2 (ligand, Moiety A (HOOC-(CH2)16-CO-gGlu-2XADO) on 20K and 231K of fusion polypeptide) HGEGTFTSDVSSYLEEQAAKEFIAWLVRGGGGGGGSGGGGSGGGGSGGGGSHPIPDSSPLLQFGGQVRQRYLYTDDAQQTEAHLEIREDGTVGGAADQSPESLLQLRALRPGVIQILGVRTSRFLCQRPDGALYGSLHFDPEACSFRELLLEDGYNVYQSEAHGLPLHLPGQRSPHRDPAPRGPARFLPLPGLPPALPEPPGILAPQPPDVGSSDPLSLVGGSQGRSPSYKS"
3.9,18.2,"Compound 11 (ligand, Moiety A (HOOC-(CH2)16-CO-gGlu-2XADO) on 221K of fusion polypeptide) HGEGTFTSDVSSYLEEQAAREFIAWLVRGGGGGGGSGGGGSGGGGSGGGGSHPIPDSSPLLQFGGQVRQRYLYTDDAQQTEAHLEIREDGTVGGAADQSPESLLQLRALRPGVIQILGVRTSRFLCQRPDGALYGSLHFDPEACSFRELLLEDGYNVYQSEAHGLPLHLPGQRSPHRDPAPRGPARFLPLPGLPPALPEPPGILAPQPPDVGSSDPLSLVKPSQGRSPSYES"
17.6,36.8,"Compound 21 (ligand, Moiety A (HOOC-(CH2)16-CO-gGlu-2XADO) on 51K and 225K of fusion polypeptide) HGEGTFTSDVSSYLEEQAAREFIAWLVRGGGGGGGSGGGGSGGGGSGGGGKHPIPDSSPLLQFGGQVRQRYLYTDDAQQTEAHLEIREDGTVGGAADQSPESLLQLRALRPGVIQILGVRTSRFLCQRPDGALYGSLHFDPEACSFRELLLEDGYNVYQSEAHGLPLHLPGQRSPHRDPAPRGPARFLPLPGLPPALPEPPGILAPQPPDVGSSDPLSLVGGSQKRSPSYES"
10.6,39.1,"Compound 20 (ligand, Moiety A (HOOC-(CH2)16-CO-gGlu-2XADO) on 51K and 221K of fusion polypeptide) HGEGTFTSDVSSYLEEQAAREFIAWLVRGGGGGGGSGGGGSGGGGSGGGGKHPIPDSSPLLQFGGQVRQRYLYTDDAQQTEAHLEIREDGTVGGAADQSPESLLQLRALRPGVIQILGVRTSRFLCQRPDGALYGSLHFDPEACSFRELLLEDGYNVYQSEAHGLPLHLPGQRSPHRDPAPRGPARFLPLPGLPPALPEPPGILAPQPPDVGSSDPLSLVKPSQGRSPSYES"
13.6,20.3,"Compound 19 (ligand, Moiety A (HOOC-(CH2)16-CO-gGlu-2XADO) on 51K and 222K of fusion polypeptide) HGEGTFTSDVSSYLEEQAAREFIAWLVRGGGGGGGSGGGGSGGGGSGGGGKHPIPDSSPLLQFGGQVRQRYLYTDDAQQTEAHLEIREDGTVGGAADQSPESLLQLRALRPGVIQILGVRTSRFLCQRPDGALYGSLHFDPEACSFRELLLEDGYNVYQSEAHGLPLHLPGQRSPHRDPAPRGPARFLPLPGLPPALPEPPGILAPQPPDVGSSDPLSLVGKSQGRSPSYES"
4.5,17.6,"Compound 10 (ligand, Moiety A (HOOC-(CH2)16-CO-gGlu-2XADO) on 222K of fusion polypeptide) HGEGTFTSDVSSYLEEQAAREFIAWLVRGGGGGGGSGGGGSGGGGSGGGGSHPIPDSSPLLQFGGQVRQRYLYTDDAQQTEAHLEIREDGTVGGAADQSPESLLQLRALRPGVIQILGVRTSRFLCQRPDGALYGSLHFDPEACSFRELLLEDGYNVYQSEAHGLPLHLPGQRSPHRDPAPRGPARFLPLPGLPPALPEPPGILAPQPPDVGSSDPLSLVGKSQGRSPSYES"
4.1,17,"Compound 12 (ligand, Moiety A (HOOC-(CH2)16-CO-gGlu-2XADO) on 225K of fusion polypeptide) HGEGTFTSDVSSYLEEQAAREFIAWLVRGGGGGGGSGGGGSGGGGSGGGGSHPIPDSSPLLQFGGQVRQRYLYTDDAQQTEAHLEIREDGTVGGAADQSPESLLQLRALRPGVIQILGVRTSRFLCQRPDGALYGSLHFDPEACSFRELLLEDGYNVYQSEAHGLPLHLPGQRSPHRDPAPRGPARFLPLPGLPPALPEPPGILAPQPPDVGSSDPLSLVGGSQKRSPSYES"
9.1,19.6,"Compound 13 (ligand, Moiety A (HOOC-(CH2)16-CO-gGlu-2XADO) on 222K of fusion polypeptide) HGEGTFTSDVSSYLEEQAAREFIAWLVRGGGGAQPGAQPGAQPGAQPGAQPHPIPDSSPLLQFGGQVRQRYLYTDDAQQTEAHLEIREDGTVGGAADQSPESLLQLRALRPGVIQILGVRTSRFLCQRPDGALYGSLHFDPEACSFRELLLEDGYNVYQSEAHGLPLHLPGQRSPHRDPAPRGPARFLPLPGLPPALPEPPGILAPQPPDVGSSDPLSLVGKSQGRSPSYES"
19,33.2,"Compound 14 (ligand, Moiety A (HOOC-(CH2)16-CO-gGlu-2XADO) on 222K of fusion polypeptide) HGEGTFTSDVSSYLEEQAAREFIAWLVRGGGGQEPGQEPGQEPGQEPGQEPHPIPDSSPLLQFGGQVRQRYLYTDDAQQTEAHLEIREDGTVGGAADQSPESLLQLRALRPGVIQILGVRTSRFLCQRPDGALYGSLHFDPEACSFRELLLEDGYNVYQSEAHGLPLHLPGQRSPHRDPAPRGPARFLPLPGLPPALPEPPGILAPQPPDVGSSDPLSLVGKSQGRSPSYES"
4.2,12.6,"Compound 39 (ligand, Moiety A (HOOC-(CH2)16-CO-gGlu-2XADO) on 71K and 242K of fusion polypeptide) HGEGTFTSDVSSYLEEQAAREFIAWLVRGGGGGGGSGGGGSGGGGSGGGGSGGGGSGGGGSGGGGSGGGGKHPIPDSSPLLQFGGQVRQRYLYTDDAQQTEAHLEIREDGTVGGAADQSPESLLQLRALRPGVIQILGVRTSRFLCQRPDGALYGSLHFDPEACSFRELLLEDGYNVYQSEAHGLPLHLPGQRSPHRDPAPRGPARFLPLPGLPPALPEPPGILAPQPPDVGSSDPLSLVGKSQGRSPSYES"
8.4,–,"Compound 42 (ligand, Moiety A (HOOC-(CH2)16-CO-gGlu-2XADO) on 71K and 242K of fusion polypeptide) HGEGTFTSDVSSYLEEQAAREFIAWLVRGGGGAQPGAQPGAQPGAQPGAQPGAQPGAQPGAQPGAQPGAQKHPIPDSSPLLQFGGQVRQRYLYTDDAQQTEAHLEIREDGTVGGAADQSPESLLQLRALRPGVIQILGVRTSRFLCQRPDGALYGSLHFDPEACSFRELLLEDGYNVYQSEAHGLPLHLPGQRSPHRDPAPRGPARFLPLPGLPPALPEPPGILAPQPPDVGSSDPLSLVGKSQGRSPSYES"
7,50.4,"Compound 22 (ligand, Moiety A (HOOC-(CH2)16-CO-gGlu-2XADO) on 51K and 231K of fusion polypeptide) HGEGTFTSDVSSYLEEQAAREFIAWLVRGGGGGGGSGGGGSGGGGSGGGGKHPIPDSSPLLQFGGQVRQRYLYTDDAQQTEAHLEIREDGTVGGAADQSPESLLQLRALRPGVIQILGVRTSRFLCQRPDGALYGSLHFDPEACSFRELLLEDGYNVYQSEAHGLPLHLPGQRSPHRDPAPRGPARFLPLPGLPPALPEPPGILAPQPPDVGSSDPLSLVGGSQGRSPSYK"
